Laboratory results from article doi:10.1101/552281 (bioRxiv, 2019).
Like-named read-outs stand apart in the source and are kept apart here.

Key:
[1] = molecular target: catalytic domain of human phenylalanine hydroxylase (hPAH-CD) (human); experiment: crystal structure
cryo-EM structure = molecular target: the molecule itself; experiment: cryo-EM structure
[2] = molecular target: the molecule itself
crystal structure = molecular target: the molecule itself; experiment: crystal structure

Row | Molecule | stoichiometry N [2] | also measured
1 | catalytic domain of human phenylalanine hydroxylase (hPAH-CD) (domain or fragment) |  | stoichiometry N [1]: 2
2 | full-length human phenylalanine hydroxylase (enzyme, UniProt P00439 1-452, looked up) MSTAVLENPGLGRKLSDFGQETSYIEDNCNQNGAISLIFSLKEEVGALAKVLRLFEENDVNLTHIESRPSRLKKDEYEFFTHLDKRSLPALTNIIKILRHDIGATVHELSRDKKKDTVPWFPRTIQELDRFANQILSYGAELDADHPGFKDPVYRARRKQFADIAYNYRHGQPIPRVEYMEEEKKTWGTVFKTLKSLYKTHACYEYNHIFPLLEKYCGFHEDNIPQLEDVSQFLQTCTGFRLRPVAGLLSSRDFLGGLAFRVFHCTQYIRHGSKPMYTPEPDICHELLGHVPLFSDRSFAQFSQEIGLASLGAPDEYIEKLATIYWFTVEFGLCKQGDSIKAYGAGLLSSFGELQYCLSEKPKLLPLELEKTAIQNYTVTEFQPLYYVAESFNDAKEKVRNFAATIPRPFSVRYDPYTQRIEVLDNTQQLKILADSINSEIGILCSALQKIK |  | stoichiometry N (cryo-EM structure): 4
3 | hPAH mutant Y377F (enzyme, human, UniProt P00439 1-452, looked up) MSTAVLENPGLGRKLSDFGQETSYIEDNCNQNGAISLIFSLKEEVGALAKVLRLFEENDVNLTHIESRPSRLKKDEYEFFTHLDKRSLPALTNIIKILRHDIGATVHELSRDKKKDTVPWFPRTIQELDRFANQILSYGAELDADHPGFKDPVYRARRKQFADIAYNYRHGQPIPRVEYMEEEKKTWGTVFKTLKSLYKTHACYEYNHIFPLLEKYCGFHEDNIPQLEDVSQFLQTCTGFRLRPVAGLLSSRDFLGGLAFRVFHCTQYIRHGSKPMYTPEPDICHELLGHVPLFSDRSFAQFSQEIGLASLGAPDEYIEKLATIYWFTVEFGLCKQGDSIKAYGAGLLSSFGELQYCLSEKPKLLPLELEKTAIQNFTVTEFQPLYYVAESFNDAKEKVRNFAATIPRPFSVRYDPYTQRIEVLDNTQQLKILADSINSEIGILCSALQKIK | 4 | 
4 | hPAH mutant Y138F (enzyme, human, UniProt P00439 1-452, looked up) MSTAVLENPGLGRKLSDFGQETSYIEDNCNQNGAISLIFSLKEEVGALAKVLRLFEENDVNLTHIESRPSRLKKDEYEFFTHLDKRSLPALTNIIKILRHDIGATVHELSRDKKKDTVPWFPRTIQELDRFANQILSFGAELDADHPGFKDPVYRARRKQFADIAYNYRHGQPIPRVEYMEEEKKTWGTVFKTLKSLYKTHACYEYNHIFPLLEKYCGFHEDNIPQLEDVSQFLQTCTGFRLRPVAGLLSSRDFLGGLAFRVFHCTQYIRHGSKPMYTPEPDICHELLGHVPLFSDRSFAQFSQEIGLASLGAPDEYIEKLATIYWFTVEFGLCKQGDSIKAYGAGLLSSFGELQYCLSEKPKLLPLELEKTAIQNYTVTEFQPLYYVAESFNDAKEKVRNFAATIPRPFSVRYDPYTQRIEVLDNTQQLKILADSINSEIGILCSALQKIK | 4 | 
5 | hPAH mutant S23A (enzyme, human, UniProt P00439 1-452, looked up) MSTAVLENPGLGRKLSDFGQETAYIEDNCNQNGAISLIFSLKEEVGALAKVLRLFEENDVNLTHIESRPSRLKKDEYEFFTHLDKRSLPALTNIIKILRHDIGATVHELSRDKKKDTVPWFPRTIQELDRFANQILSYGAELDADHPGFKDPVYRARRKQFADIAYNYRHGQPIPRVEYMEEEKKTWGTVFKTLKSLYKTHACYEYNHIFPLLEKYCGFHEDNIPQLEDVSQFLQTCTGFRLRPVAGLLSSRDFLGGLAFRVFHCTQYIRHGSKPMYTPEPDICHELLGHVPLFSDRSFAQFSQEIGLASLGAPDEYIEKLATIYWFTVEFGLCKQGDSIKAYGAGLLSSFGELQYCLSEKPKLLPLELEKTAIQNYTVTEFQPLYYVAESFNDAKEKVRNFAATIPRPFSVRYDPYTQRIEVLDNTQQLKILADSINSEIGILCSALQKIK | 4 | 
6 | ΔN13-hPAH (human phenylalanine hydroxylase lacking the N-terminal 13 residues) (enzyme, UniProt P00439 14-452, looked up) KLSDFGQETSYIEDNCNQNGAISLIFSLKEEVGALAKVLRLFEENDVNLTHIESRPSRLKKDEYEFFTHLDKRSLPALTNIIKILRHDIGATVHELSRDKKKDTVPWFPRTIQELDRFANQILSYGAELDADHPGFKDPVYRARRKQFADIAYNYRHGQPIPRVEYMEEEKKTWGTVFKTLKSLYKTHACYEYNHIFPLLEKYCGFHEDNIPQLEDVSQFLQTCTGFRLRPVAGLLSSRDFLGGLAFRVFHCTQYIRHGSKPMYTPEPDICHELLGHVPLFSDRSFAQFSQEIGLASLGAPDEYIEKLATIYWFTVEFGLCKQGDSIKAYGAGLLSSFGELQYCLSEKPKLLPLELEKTAIQNYTVTEFQPLYYVAESFNDAKEKVRNFAATIPRPFSVRYDPYTQRIEVLDNTQQLKILADSINSEIGILCSALQKIK |  | stoichiometry N (crystal structure): 4
